# T1: Flag-Munc18c-Y219F (mouse, UniProt Q60770 1-592, Y219F)
# T1 sequence: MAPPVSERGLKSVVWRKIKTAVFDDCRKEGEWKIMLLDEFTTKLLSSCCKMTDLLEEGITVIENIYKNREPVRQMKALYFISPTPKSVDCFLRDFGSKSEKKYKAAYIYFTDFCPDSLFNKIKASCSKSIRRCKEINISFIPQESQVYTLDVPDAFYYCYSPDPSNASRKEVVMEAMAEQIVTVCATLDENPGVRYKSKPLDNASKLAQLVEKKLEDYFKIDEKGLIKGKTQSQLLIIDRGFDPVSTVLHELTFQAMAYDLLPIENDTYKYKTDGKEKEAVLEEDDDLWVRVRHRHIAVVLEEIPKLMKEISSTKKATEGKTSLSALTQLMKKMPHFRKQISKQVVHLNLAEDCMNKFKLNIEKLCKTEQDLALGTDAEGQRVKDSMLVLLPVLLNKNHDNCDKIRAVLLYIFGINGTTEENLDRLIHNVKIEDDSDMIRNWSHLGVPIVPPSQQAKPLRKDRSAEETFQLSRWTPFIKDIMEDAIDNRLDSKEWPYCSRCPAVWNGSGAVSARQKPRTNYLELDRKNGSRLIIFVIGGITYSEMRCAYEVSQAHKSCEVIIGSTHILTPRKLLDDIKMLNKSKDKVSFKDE
# T2: Flag-Munc18c-Y521F (mouse, UniProt Q60770 1-592, Y521F)
# T2 sequence: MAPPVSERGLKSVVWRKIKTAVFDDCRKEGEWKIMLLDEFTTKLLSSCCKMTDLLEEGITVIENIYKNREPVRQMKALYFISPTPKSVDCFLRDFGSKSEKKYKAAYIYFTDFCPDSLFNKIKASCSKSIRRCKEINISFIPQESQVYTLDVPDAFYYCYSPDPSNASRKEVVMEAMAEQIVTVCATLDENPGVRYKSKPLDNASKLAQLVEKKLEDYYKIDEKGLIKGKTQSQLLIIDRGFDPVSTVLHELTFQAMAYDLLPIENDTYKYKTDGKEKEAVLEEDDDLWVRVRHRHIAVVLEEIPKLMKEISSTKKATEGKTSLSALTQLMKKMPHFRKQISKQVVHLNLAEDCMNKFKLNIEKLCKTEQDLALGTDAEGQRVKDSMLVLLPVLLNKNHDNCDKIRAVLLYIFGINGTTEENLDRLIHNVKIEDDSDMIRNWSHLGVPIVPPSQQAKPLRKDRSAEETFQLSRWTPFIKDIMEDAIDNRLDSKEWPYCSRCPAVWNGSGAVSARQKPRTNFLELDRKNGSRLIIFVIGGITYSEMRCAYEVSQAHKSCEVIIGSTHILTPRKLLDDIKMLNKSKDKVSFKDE
# T3: Munc18c (mouse (endogenous in 3T3-L1 adipocytes …, UniProt Q60770 1-592))
# T3 sequence: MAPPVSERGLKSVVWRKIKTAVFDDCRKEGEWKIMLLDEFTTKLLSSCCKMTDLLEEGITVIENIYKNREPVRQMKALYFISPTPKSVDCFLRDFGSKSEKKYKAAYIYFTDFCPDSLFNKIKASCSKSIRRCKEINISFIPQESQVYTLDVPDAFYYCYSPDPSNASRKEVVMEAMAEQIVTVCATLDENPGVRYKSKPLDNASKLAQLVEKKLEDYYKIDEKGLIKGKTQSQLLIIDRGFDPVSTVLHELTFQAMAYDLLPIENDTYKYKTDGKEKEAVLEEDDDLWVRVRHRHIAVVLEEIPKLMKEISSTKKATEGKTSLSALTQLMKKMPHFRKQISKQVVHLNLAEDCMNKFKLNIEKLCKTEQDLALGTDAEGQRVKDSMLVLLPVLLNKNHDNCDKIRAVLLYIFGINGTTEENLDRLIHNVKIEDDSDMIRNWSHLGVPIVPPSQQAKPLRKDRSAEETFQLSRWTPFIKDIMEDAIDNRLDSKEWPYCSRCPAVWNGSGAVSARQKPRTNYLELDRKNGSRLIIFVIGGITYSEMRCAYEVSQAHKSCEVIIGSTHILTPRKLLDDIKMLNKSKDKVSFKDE
# B1: full-length syntaxin 4 (natural protein)
# chain: MRDRTHELRQGDNISDDEDEVRVALVVHSGAARLSSPDDEFFQKVQTIRQTMAKLESKVRELEKQQVTILATPLPEESMKQGLQNLREEIKQLGREVRAQLKAIEPQKEEADENYNSVNTRMKKTQHGVLSQQFVELINKCNSMQSEYREKNVERIRRQLKITNAGMVSDEELEQMLDSGQSEVFVSNILKDTQVTRQALNEISARHSEIQQLERSIRELHEIFTFLATEVEMQGEMINRIEKNILSSADYVERGQEHVKIALENQKKARKKKVMIAICVSVTVLILAVIIGITITVG
# B2: insulin receptor (receptor)
# chain 1: HLYPGEVCPGMDIRNNLTRLHELENCSVIEGHLQILLMFKTRPEDFRDLSFPKLIMITDYLLLFRVYGLESLKDLFPNLTVIRGSRLFFNYALVIFEMVHLKELGLYNLMNITRGSVRIEKNNELCYLATIDWSRILDSVEDNYIVLNKDDNEECGDVCPGTAKGKTNCPATVINGQFVERCWTHSHCQKVCPTICKSHGCTAEGLCCHKECLGNCSEPDDPTKCVACRNFYLDGQCVETCPPPYYHFQDWRCVNFSFCQDLHFKCRNSRKPGCHQYVIHNNKCIPECPSGYTMNSSNLMCTPCLGPCPKVCQILEGEKTIDSVTSAQELRGCTVINGSLIINIRGGNNLAAELEANLGLIEEISGFLKIRRSYALVSLSFFRKLHLIRGETLEIGNYSFYALDNQNLRQLWDWSKHNLTITQGKLFFHYNPKLCLSEIHKMEEVSGTKGRQERNDIALKTNGDQASCENELLKFSFIRTSFDKILLRWEPYWPPDFRDLLGFMLFYKEAPYQNVTEFDGQDACGSNSWTVVDIDPPQRSNDPKSQTPSHPGWLMRGLKPWTQYAIFVKTLVTFSDERRTYGAKSDIIYVQTDATNPSVPLDPISVSNSSSQIILKWKPPSDPNGNITHYLVYWERQAEDSELFELDYCLKGLKLPSRTWSPPFESDDSQKHNQSEYDDSASECCSCPKTDSQILKELEESSFRKTFEDYLHNVVFVPRPS
# chain 2: SLEEVGNVTATTLTLPDFPNVSSTIVPTSQEEHRPFEKVVNKESLVISGLRHFTGYRIELQACNQDSPDERCSVAAYVSARTMPEAKADDIVGPVTHEIFENNVVHLMWQEPKEPNGLIVLYEVSYRRYGDEELHLCVSRKHFALERGCRLRGLSPGNYSVRVRATSLAGNGSWTEPTYFYVTDYLDVPSNIAKIIIGPLIFVFLFSVVIGSIYLFLRKRQPDGPMGPLYASSNPEYLSASDVFPSSVYVPDEWEVPREKITLLRELGQGSFGMVYEGNAKDIIKGEAETRVAVKTVNESASLRERIEFLNEASVMKGFTCHHVVRLLGVVSKGQPTLVVMELMAHGDLKSHLRSLRPDAENNPGRPPPTLQEMIQMTAEIADGMAYLNAKKFVHRDLAARNCMVAHDFTVKIGDFGMTRDIYETDYYRKGGKGLLPVRWMSPESLKDGVFTASSDMWSFGVVLWEITSLAEQPYQGLSNEQVLKFVMDGGYLDPPDNCPERLTDLMRMCWQFNPKMRPTFLEIVNLLKDDLHPSFPEVSFFYSEENKAPESEELEMEFEDMENVPLDRSSHCQREEAGGREGGSSLSIKRTYDEHIPYTHMNGGKKNGRVLTLPRSNPS
# Assays:
# Assay in all cases: co-IP
# Flag-Munc18c-Y219F = target: T1, Flag-Munc18c-Y219F
# Flag-Munc18c-Y521F = target: T2, Flag-Munc18c-Y521F
# Munc18c = target: T3, Munc18c
Binder,"ratio syntaxin 4/Flag-Munc18c, insulin-stimulated versus basal = 1 (Flag-Munc18c-Y219F)","ratio syntaxin 4/Flag-Munc18c, insulin-stimulated versus basal = 1 (Flag-Munc18c-Y521F)","fold change of coprecipitated IR, insulin versus unstimulated (Munc18c) [fold]"
B1,1,1.6,–
B2,–,–,~2

# Source: article PMC3082181 (The Journal of Cell Biology, 2011)
